Test system: HIV-1 reverse transcriptase (HXB2-RT) (HIV-1 (HXB2))
Experiment: MST
Settings: MST: 50 nM RNA complex titrated with RT; binding buffer, pH and temperature not stated; annealing buffer 10 mM Tris-HCl pH 7.5, 10 mM NaCl, 1 mM MgCl2, 140 mM …

**Q.** How did the Kd turn out when MAL 5'UTR:tRNALys3 was run?
**A.** 1360 nM

From publication PMC7793103
